Measurements reported in patent publication US8962263B2, “Methods and compositions for detecting the activation state of multiple proteins in single cells” (The Board of Trustees of the Leland Stanford Junior …, priority 2001, dated 2015).
Like-named read-outs stand apart in the source and are kept apart here.

What was measured:
human naïve T-cells = test: T cell activation by CD25 and CD69 markers in human naïve T cells; type: cell-based; details: combined with CD3/CD28 stimulation
Description: A) Intracellular detection of IL-2, of titration of CD3/CD28, vs. LFA-1, stimulus or CD3, vs. CD28, stimulus for 6, hours. Median Fluorescent intensity is plotted as a visual array. B) Bivariate analysis of CD69, and CD25 expression in unstimulated, CD3/CD28/LFA-1, (0.001, μg/ml, 1:1:1) stimulated, and CD3/CD28, (10 μg/ml) stimulated CD4, T cells. C) Bivariate plot of CD69, expression and intracellular detection of IL-2, post 12, hour stimulation of unstimulated, CD3/CD28, and CD3/CD28/LFA-1, stimulation.
Intracellular and extracellular staining was performed as described for phospho-staining (Perez and Nolan, 2002). […] Four or less color flow cytometry data acquisition was collected on a FACSCalibur machine (Beckton Dickinson, San Jose Calif.) using CELLQuest software, analyzed and presented using FlowJo software (Tree Star, San Carlos, California). […] Data were collected by FACS-Desk software and compensated, analyzed, and presented using FlowJo software. […] Ratios of intracellular flow cytometric measurements were calculated from the following equation where MFI equals mean fluorescent intensity: Log [(MFIexperimental−MFIisotype mAb)/(MFIcontrol−MFlisotype mAb)].

p44/42 MAPK = test: phospho-p44/42 MAPK immunoblot and p44/42 MAPK kinase assay in soluble ICAM-2 treated Jurkat cells; type: cell-based, human

B1: ICAM-2: biochemically purified soluble human ICAM-2 protein from retrovirally transduced NIH3T3 cells; ICAM-2-FC fusion also used (protein, UniProt P13598 25-223, looked up)
extracellular domain: KVFEVHVRPKKLAVEPKGSLEVNCSTTCNQPEVGGLETSLDKILLDEQAQWKHYLVSNISHDTVLQCHFTCSGKQESMNSNVSVYQPPRQVILTLQPTLVAVGKSFTIECRVPTVEPLDSLTLFLFRGNETLHYETFGKAAPAPQEATATFNSTADREDGHRNFSCLAVLDLMSRGGNIFHKHSAPKMLEIYEPVSDSQ
modifications: extracellular domain
notes: biochemically purified soluble human ICAM-2 protein from retrovirally transduced NIH3T3 cells; ICAM-2-FC fusion also used
Human naïve T-cells
  lowering of the CD3/CD28 stimulus threshold: 10,000 fold
p44/42 MAPK
  p44/42 MAPK phosphorylation and activity on ICAM-2 treatment: induced both p44/42 MAPK phosphorylation and activation
p44/42 MAPK; listed as soluble ICAM-2
  p44/42 MAPK phosphorylation and activity on ICAM-2 treatment: induced p44/42, MAPK phosphorylation and activity
